The values that follow come from publication PMC12749748, “Chemically-induced degradation of the endoplasmic-reticulum stress sensor IRE1 by a VHL-recruiting chimera” (Nature Communications, 2025).

This test addresses Biotinylated human IRE1.KR protein (human) (UniProt O75460). The experiment in a line: SPR; Biacore S200, 20 °C; biotinylated IRE1.KR captured on a streptavidin chip (100-200 RU); VHL titrated without G6374, 8-point 2-fold series, top 5 µM, single cycle kinetics; 50 mM HEPES pH 7.4, 150 mM NaCl, 0.01% Tween 20, 0.2% PEG3350, 0.25 mM TCEP, 100 µg/ml ovalbumin, 2% DMSO. (In SPR one partner is held on a chip, and binding of the other changes the refractive index at the surface.)

Chain of Biotinylated human IRE1.KR protein (human) (O75460 547-977): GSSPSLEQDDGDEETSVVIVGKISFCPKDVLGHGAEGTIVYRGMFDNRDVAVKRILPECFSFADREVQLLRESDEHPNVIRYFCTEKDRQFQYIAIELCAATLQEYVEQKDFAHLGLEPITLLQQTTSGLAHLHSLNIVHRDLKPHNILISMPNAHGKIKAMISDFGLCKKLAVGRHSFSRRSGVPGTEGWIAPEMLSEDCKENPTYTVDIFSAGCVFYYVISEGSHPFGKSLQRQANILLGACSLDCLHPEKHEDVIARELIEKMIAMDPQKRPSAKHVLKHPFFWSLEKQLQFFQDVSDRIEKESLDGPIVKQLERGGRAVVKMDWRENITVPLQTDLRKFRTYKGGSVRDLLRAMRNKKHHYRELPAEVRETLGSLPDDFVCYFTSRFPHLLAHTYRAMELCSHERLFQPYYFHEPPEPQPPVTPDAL

In the case of “his-VHL/EloB (VHL in complex with Elongin B) (from UniProt P40337 1-213; Q15370 1-118)”, the KD without G6374 is over 10 µM.
